No end group written: not given here.

Results on 2 molecules are retold here after US20060062797A1 (RESEARCH FOUNDATION OF STATE UNIVERSITY OF NEW YORK AT …, published 2006).

Series [1] concerns the target Aβ1-42 peptide (SEQ ID NO: 157) (Homo sapiens (Human), UniProt P05067 672-713). The series is described as follows: cell-based or functional assay.
Series [2] concerns the molecule itself. The series is described as follows: 2D solid-state NMR (DARR) on fibrils, self-association.

On to RGTFEGKF-NH2 (not fully specified; printed as RGTFEGKF-NH2) [amyloid fibril inhibitor protein RGTFEGKF-NH2 (SEQ ID NO: 1)], for which the “thioflavin T fluorescence, inhibition of fibrillization at Aβ1-42:I1 molar ratio 1:20” value in series [1] is 70%.

B1: truncated glycophorin A peptide GpA70-86 (SEQ ID NO: 158) (peptide)
peptide: EPEITLIIFGVMAGVIG
modifications: not fully specified
notes: 17-residue fragment of glycophorin A, residues 70-86, that forms fibrils; NMR samples were 13C-labelled at Gly79, Gly83 or the Met81 methyl; also called truncated GpA; glycophorin A transmembrane peptide fragment
B1: the binding result in series [2] was “binds”.
